Experimental data taken from the supplement of paper PMC10065799, “High-throughput profiling of sequence recognition by tyrosine kinases and SH2 domains using bacterial peptide display” (eLife, 2023).

Key:
[1] = tested on: AncSZ; test: phosphorylation enrichment, bacterial display (enrichment ratio); higher = better substrate or ligand; peptides without Tyr show the background
[2] = target: EPHB1 (UniProt P54762); test: as above
[3] = target: EPHB2 (UniProt P29323); test: as above
[4] = target: FGFR1 (UniProt P11362); test: as above
Chain of FGFR1 (P11362 whole entry, looked up): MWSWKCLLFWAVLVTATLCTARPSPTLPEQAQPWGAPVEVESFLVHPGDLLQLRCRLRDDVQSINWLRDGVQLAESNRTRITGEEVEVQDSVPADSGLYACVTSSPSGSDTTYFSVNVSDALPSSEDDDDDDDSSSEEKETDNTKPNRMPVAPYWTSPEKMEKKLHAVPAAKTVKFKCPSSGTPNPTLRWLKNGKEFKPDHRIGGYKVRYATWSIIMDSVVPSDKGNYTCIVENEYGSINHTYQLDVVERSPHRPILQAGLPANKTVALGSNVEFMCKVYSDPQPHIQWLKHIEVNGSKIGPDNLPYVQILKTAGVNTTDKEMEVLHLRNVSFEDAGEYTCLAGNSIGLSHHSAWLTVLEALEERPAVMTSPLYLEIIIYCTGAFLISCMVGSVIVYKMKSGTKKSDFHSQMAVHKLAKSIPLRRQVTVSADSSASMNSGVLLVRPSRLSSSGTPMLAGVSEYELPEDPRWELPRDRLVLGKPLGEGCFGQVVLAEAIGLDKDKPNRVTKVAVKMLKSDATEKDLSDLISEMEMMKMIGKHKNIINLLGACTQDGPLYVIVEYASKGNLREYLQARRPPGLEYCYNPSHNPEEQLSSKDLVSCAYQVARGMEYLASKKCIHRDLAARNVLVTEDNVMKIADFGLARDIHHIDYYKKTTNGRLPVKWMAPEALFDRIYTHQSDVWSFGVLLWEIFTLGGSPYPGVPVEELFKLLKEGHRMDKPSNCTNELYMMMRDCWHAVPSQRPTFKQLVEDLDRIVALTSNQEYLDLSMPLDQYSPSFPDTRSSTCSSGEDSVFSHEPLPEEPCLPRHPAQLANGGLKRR

[5] = target: FGFR3 (UniProt P22607); test: as above
Chain of FGFR3 (P22607 whole entry, looked up): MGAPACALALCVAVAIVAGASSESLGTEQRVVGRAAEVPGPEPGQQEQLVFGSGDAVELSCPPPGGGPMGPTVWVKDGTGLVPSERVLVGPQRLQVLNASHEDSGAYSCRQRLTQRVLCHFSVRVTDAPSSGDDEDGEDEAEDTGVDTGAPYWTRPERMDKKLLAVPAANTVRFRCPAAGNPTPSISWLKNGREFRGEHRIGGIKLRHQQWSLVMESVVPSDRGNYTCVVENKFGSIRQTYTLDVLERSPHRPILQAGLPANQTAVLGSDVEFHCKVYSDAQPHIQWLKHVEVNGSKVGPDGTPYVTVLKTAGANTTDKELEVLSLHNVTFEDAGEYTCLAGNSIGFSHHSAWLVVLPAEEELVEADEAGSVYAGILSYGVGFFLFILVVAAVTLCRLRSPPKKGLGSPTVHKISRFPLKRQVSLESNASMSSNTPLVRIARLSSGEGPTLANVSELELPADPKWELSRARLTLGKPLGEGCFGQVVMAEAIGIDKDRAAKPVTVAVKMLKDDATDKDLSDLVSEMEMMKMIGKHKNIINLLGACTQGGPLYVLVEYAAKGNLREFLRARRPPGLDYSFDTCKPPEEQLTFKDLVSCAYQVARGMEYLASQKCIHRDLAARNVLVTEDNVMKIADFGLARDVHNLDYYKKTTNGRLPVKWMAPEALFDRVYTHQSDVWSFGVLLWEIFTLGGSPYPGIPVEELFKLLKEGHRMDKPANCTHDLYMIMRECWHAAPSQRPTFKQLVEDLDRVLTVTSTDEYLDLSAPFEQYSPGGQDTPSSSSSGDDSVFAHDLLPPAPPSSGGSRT

[6] = tested on: Fer (mouse); test: as above
[7] = target: Fes (UniProt P07332); test: as above
[8] = target: Fyn (UniProt P06241); test: as above
Chain of Fyn (P06241 whole entry, looked up): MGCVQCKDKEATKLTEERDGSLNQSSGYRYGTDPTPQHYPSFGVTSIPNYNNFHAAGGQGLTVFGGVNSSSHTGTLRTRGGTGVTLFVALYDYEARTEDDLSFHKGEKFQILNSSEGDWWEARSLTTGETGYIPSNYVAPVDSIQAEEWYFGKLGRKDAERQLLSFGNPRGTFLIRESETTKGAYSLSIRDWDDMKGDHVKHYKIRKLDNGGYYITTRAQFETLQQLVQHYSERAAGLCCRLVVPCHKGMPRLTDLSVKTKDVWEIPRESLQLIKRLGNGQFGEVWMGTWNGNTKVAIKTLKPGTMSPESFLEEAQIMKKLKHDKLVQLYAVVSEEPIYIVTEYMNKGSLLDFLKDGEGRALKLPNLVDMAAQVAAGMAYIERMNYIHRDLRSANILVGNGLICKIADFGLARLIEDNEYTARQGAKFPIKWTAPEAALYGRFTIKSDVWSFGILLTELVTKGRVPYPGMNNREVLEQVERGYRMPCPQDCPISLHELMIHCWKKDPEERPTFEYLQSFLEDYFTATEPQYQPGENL

[9] = target: Hck (UniProt P08631); test: as above
Chain of Hck (P08631 whole entry, looked up): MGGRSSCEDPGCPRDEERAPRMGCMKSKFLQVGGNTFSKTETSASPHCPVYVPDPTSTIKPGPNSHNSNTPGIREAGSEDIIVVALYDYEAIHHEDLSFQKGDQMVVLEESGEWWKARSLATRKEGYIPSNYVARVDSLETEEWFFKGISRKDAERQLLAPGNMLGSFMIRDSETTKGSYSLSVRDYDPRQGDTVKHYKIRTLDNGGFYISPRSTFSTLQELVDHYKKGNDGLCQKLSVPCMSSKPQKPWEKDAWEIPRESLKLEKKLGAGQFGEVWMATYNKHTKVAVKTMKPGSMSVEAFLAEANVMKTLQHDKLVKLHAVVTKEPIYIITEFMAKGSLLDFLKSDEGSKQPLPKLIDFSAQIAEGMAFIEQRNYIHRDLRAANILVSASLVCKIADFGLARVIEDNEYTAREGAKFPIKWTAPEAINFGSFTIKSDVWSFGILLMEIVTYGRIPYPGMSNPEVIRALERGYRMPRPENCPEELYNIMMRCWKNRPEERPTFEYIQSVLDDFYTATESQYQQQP

[10] = target: Jak2 (UniProt O60674); test: as above
[11] = target: MERTK (UniProt Q12866); test: as above
Chain of MERTK (Q12866 whole entry, looked up): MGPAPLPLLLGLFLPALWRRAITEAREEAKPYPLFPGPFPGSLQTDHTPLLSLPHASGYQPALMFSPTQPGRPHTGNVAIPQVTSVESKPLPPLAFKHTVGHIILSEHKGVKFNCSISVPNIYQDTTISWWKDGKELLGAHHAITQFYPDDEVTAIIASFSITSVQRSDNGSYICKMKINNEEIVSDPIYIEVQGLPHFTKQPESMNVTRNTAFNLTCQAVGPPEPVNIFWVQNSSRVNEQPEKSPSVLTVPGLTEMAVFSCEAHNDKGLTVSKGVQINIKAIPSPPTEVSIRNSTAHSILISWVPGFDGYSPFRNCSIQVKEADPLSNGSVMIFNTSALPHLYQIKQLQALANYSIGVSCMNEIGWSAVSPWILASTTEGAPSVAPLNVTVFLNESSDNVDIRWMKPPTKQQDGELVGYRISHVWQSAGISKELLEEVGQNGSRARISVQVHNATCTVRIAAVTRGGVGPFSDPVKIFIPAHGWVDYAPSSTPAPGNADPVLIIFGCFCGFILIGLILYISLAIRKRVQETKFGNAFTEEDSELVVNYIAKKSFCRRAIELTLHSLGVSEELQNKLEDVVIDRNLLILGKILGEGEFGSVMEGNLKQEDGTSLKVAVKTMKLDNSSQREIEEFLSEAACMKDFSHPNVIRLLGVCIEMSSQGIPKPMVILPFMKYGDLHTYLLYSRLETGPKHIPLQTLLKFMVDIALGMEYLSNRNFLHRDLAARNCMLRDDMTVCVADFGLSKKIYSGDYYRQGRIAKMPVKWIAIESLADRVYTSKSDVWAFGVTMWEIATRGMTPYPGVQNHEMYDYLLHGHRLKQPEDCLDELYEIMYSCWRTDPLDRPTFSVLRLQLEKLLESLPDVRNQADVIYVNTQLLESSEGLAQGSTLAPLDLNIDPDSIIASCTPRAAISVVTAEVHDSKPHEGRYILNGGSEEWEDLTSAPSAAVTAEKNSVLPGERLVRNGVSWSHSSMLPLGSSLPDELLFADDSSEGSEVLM

[12] = tested on: c-Abl (mouse); test: as above
[13] = tested on: c-Src; test: as above
[14] = target: Grb2 SH2 (UniProt P62993); test: SH2 binding enrichment of the phosphorylated peptide, bacterial display (enrichment ratio); higher = better substrate or ligand; peptides without Tyr show the background
Chain of Grb2 SH2 (P62993 whole entry, looked up): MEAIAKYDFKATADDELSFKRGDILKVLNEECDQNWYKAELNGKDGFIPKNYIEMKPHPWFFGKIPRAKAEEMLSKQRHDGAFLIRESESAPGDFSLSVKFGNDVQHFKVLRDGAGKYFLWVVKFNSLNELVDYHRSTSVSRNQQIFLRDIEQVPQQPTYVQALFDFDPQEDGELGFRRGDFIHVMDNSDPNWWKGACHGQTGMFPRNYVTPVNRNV

[15] = target: SHP2-C SH2; test: as above
[16] = target: c-Src SH2; test: as above
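For SH2 binding enrichment of the phosphorylated peptide, bacterial display in this document: peptide library displayed on the E. coli surface as eCPX fusions, selected cells deep-sequenced, score is each peptide's frequency after selection divided by its frequency in the input.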
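For phosphorylation enrichment, bacterial display in this document: 11-residue human phosphosite peptides and single-mutation variants displayed on the E. coli surface, counted by deep sequencing, each peptide's frequency after selection divided by its frequency in the unselected input library; frequency after pTyr selection over input frequency; kinase dosed for 20-30% of maximal phosphorylation in three min.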

Chain of EPHB2 (P29323 whole entry, looked up): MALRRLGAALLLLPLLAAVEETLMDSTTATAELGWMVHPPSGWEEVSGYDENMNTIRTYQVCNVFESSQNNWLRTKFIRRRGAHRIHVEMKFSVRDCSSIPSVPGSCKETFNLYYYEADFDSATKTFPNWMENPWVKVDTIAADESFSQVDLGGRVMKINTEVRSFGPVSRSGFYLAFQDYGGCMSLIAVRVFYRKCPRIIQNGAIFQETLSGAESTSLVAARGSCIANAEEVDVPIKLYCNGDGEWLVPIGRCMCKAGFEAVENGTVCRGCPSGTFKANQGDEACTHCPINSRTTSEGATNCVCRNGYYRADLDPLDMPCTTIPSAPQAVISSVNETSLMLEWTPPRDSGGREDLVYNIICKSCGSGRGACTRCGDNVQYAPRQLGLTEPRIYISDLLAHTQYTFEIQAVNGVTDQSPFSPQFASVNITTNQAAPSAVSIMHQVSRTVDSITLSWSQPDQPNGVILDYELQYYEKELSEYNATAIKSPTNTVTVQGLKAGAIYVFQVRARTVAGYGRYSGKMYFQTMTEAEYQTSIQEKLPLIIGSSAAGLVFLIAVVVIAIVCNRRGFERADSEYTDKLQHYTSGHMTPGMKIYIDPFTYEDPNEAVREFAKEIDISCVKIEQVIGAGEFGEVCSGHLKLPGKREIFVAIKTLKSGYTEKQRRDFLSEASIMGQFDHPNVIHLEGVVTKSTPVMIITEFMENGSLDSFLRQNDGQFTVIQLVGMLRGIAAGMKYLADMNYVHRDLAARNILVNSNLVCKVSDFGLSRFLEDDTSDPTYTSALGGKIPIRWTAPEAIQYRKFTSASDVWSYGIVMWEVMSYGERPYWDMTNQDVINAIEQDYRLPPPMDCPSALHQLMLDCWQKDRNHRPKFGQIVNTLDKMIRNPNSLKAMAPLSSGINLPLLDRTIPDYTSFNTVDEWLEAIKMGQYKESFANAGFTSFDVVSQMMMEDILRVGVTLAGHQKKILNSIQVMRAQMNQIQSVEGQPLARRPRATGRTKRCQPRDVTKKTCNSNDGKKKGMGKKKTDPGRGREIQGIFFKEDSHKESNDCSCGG

Sequence | phosphorylation enrichment [1] | phosphorylation enrichment [2] | phosphorylation enrichment [3] | phosphorylation enrichment [4] | phosphorylation enrichment [5] | phosphorylation enrichment [6] | phosphorylation enrichment [7] | phosphorylation enrichment [8] | phosphorylation enrichment [9] | phosphorylation enrichment [10] | phosphorylation enrichment [11] | phosphorylation enrichment [12] | phosphorylation enrichment [13] | SH2 binding enrichment [14] | SH2 binding enrichment [15] | SH2 binding enrichment [16]
LAETSYVKVLE [MAGEA1_Y276] | 0.817 | 0.499 | 0.471 | 0.53 | 0.532 | 0.472 | 1.03 | 0.479 | 0.473 | 0.888 | 0.452 | 0.616 | 0.512 | 0.94 | 7 | 1.69
SVICTYSPALN [TP53_Y126_T123I] | 1.36 | 0.59 | 0.673 | 0.61 | 0.779 | 0.651 | 1.44 | 0.546 | 0.523 | 1.03 | 0.438 | 0.97 | 0.58 | 0.838 | 0.731 | 0.448
IDSTPYRQWFE [RPS8_Y109_YF] | 0.739 | 0.487 | 0.464 | 0.494 | 0.551 | 0.406 | 0.856 | 0.302 | 0.442 | 0.855 | 0.357 | 0.665 | 0.368 | 0.758 | 0.744 | 0.417
GTQGSYLLSRK [UGT3A1_Y123_C121G] | 0.523 | 0.48 | 0.411 | 0.366 | 0.355 | 0.392 | 0.56 | 0.4 | 0.49 | 0.615 | 0.433 | 0.606 | 0.555 | 0.584 | 0.821 | 0.392
LKALKYKSMKI [ITGA11_Y1098] | 0.374 | 0.299 | 0.31 | 0.225 | 0.619 | 0.452 | 0.701 | 0.641 | 0.424 | 0.735 | 0.336 | 0.568 | 0.322 | 1.34 | 0.876 | 0.783
VEDPEYAVTQL [STOML2_Y124] | 1.24 | 0.466 | 0.531 | 0.477 | 0.516 | 0.709 | 0.997 | 0.398 | 0.463 | 0.893 | 0.409 | 0.597 | 0.549 | 1.11 | 0.835 | 0.483
THPFPYLSLEI [MLH1_Y293_L292P] | 0.909 | 0.502 | 0.474 | 0.657 | 0.677 | 0.39 | 0.978 | 0.295 | 0.475 | 1.09 | 0.414 | 0.715 | 0.554 | 1.04 | 0.752 | 2.05
HFMELYDLNRD [BBS2_Y648_R643H_YF] | 1.1 | 0.625 | 0.594 | 0.497 | 0.723 | 0.784 | 1.18 | 1.38 | 1.48 | 1.28 | 0.563 | 0.943 | 4.64 | 1.25 | 1.51 | 0.654
SGGSSYGSGGG [KRT1_Y532] | 0.506 | 0.381 | 0.396 | 0.411 | 0.389 | 0.397 | 0.583 | 0.382 | 0.396 | 0.537 | 0.362 | 0.633 | 0.449 | 0.871 | 0.527 | 0.427
APSGNYVACGG [GNB1_Y111] | 1.13 | 0.822 | 0.691 | 0.478 | 1.07 | 0.513 | 0.788 | 0.363 | 0.429 | 0.571 | 0.437 | 0.584 | 0.301 | 0.956 | 0.804 | 1.42
TSHKGYVAFLE [CARD9_Y76_G72S] | 0.707 | 0.451 | 0.404 | 0.477 | 0.554 | 0.315 | 0.762 | 0.353 | 0.38 | 0.676 | 0.38 | 0.602 | 0.354 | 0.877 | 0.724 | 2.64
LINSVYGCSRQ [TMPRSS6_Y290_T287N] | 1.43 | 1.01 | 1 | 1.02 | 0.974 | 0.863 | 1.57 | 3.32 | 4.43 | 1.82 | 1.21 | 1.37 | 5.15 | 0.727 | 1.12 | 0.589
GPGSGYTNIMR [PKLR_Y564_R559G] | 0.553 | 0.48 | 0.398 | 0.35 | 0.47 | 0.362 | 0.496 | 0.391 | 0.444 | 0.533 | 0.393 | 0.827 | 0.412 | 3.4 | 7.01 | 7.2
RRNTYYASIAK [ACADM_Y353] | 0.902 | 0.702 | 0.541 | 0.536 | 0.76 | 0.611 | 0.889 | 0.762 | 0.853 | 1.12 | 1.13 | 0.939 | 0.81 | 0.889 | 1.66 | 0.953
WRPFGYPRCRR [BCS1L_Y181_R184C] | 0.599 | 0.444 | 0.478 | 0.505 | 0.459 | 0.447 | 0.509 | 0.498 | 0.454 | 0.485 | 0.505 | 0.403 | 0.528 | 0.714 | 0.39 | 0.459
GSCQEYTGAPF [NAXD_Y85_G81S_YF] | 1.16 | 0.628 | 0.496 | 0.536 | 0.798 | 0.466 | 1.04 | 0.422 | 0.509 | 0.98 | 0.424 | 0.638 | 0.564 | 0.946 | 0.822 | 0.596
SGPRRYTVAAL [TTR_Y125_I127V] | 0.51 | 0.409 | 0.42 | 0.401 | 0.423 | 0.393 | 0.496 | 0.457 | 0.429 | 0.729 | 0.395 | 0.635 | 0.415 | 0.794 | 0.516 | 0.618

Sequence | phosphorylation enrichment [1] | phosphorylation enrichment [2] | phosphorylation enrichment [3] | phosphorylation enrichment [4] | phosphorylation enrichment [5] | phosphorylation enrichment [6] | phosphorylation enrichment [7] | phosphorylation enrichment [8] | phosphorylation enrichment [9] | phosphorylation enrichment [10] | phosphorylation enrichment [11] | phosphorylation enrichment [12] | phosphorylation enrichment [13] | SH2 binding enrichment [14] | SH2 binding enrichment [15] | SH2 binding enrichment [16]
MSRDVYSTDYY [NTRK2_Y702] | 1.59 | 2.16 | 2.65 | 3.94 | 2.72 | 0.535 | 0.842 | 2.77 | 1.73 | 0.788 | 5.06 | 0.558 | 3.88 | 1.2 | 0.735 | 0.715
QSSALYEDRFL [ASS1_Y83_YF] | 1.19 | 4.13 | 1.86 | 0.781 | 1.01 | 10.1 | 1.53 | 1.48 | 6.48 | 1.23 | 1.24 | 1.08 | 2.02 | 0.835 | 0.471 | 0.65
RLVTRYIFNRE [HLA-DQB1_Y62_Y58L_YF] | 0.639 | 0.477 | 0.415 | 0.579 | 0.695 | 0.54 | 0.815 | 0.553 | 0.445 | 0.556 | 0.652 | 0.51 | 0.462 | 0.851 | 0.728 | 0.5
TVLEPYADPYY [ZC3H18_Y367] | 2.42 | 0.566 | 0.697 | 0.785 | 0.905 | 0.516 | 1.69 | 1.23 | 0.834 | 1.58 | 0.712 | 1.25 | 2.44 | 0.773 | 0.262 | 1.29
KLKRSYSSPDI [USP8_Y717] | 0.552 | 0.376 | 0.688 | 0.365 | 0.461 | 0.38 | 0.613 | 0.322 | 0.379 | 0.524 | 0.43 | 0.412 | 0.396 | 0.698 | 0.649 | 0.413
SGETKYNPTEA [NBEAL2_Y2748_E2747K] | 0.767 | 0.558 | 0.476 | 0.502 | 0.594 | 0.539 | 0.868 | 0.459 | 0.613 | 0.848 | 0.449 | 0.624 | 0.537 | 0.791 | 0.533 | 0.579
TGILLYGLASR [QARS1_Y57] | 0.885 | 0.964 | 1.38 | 0.529 | 0.692 | 1.46 | 1.16 | 0.578 | 1.22 | 0.937 | 1.79 | 0.756 | 0.765 | 0.855 | 0.803 | 0.497
IQTDGDRAPEA [UHMK1_Y197_Y197D] | 1.08 | 0.636 | 0.702 | 0.602 | 0.88 | 0.595 | 1.35 | 0.466 | 0.655 | 0.96 | 0.487 | 0.79 | 0.536 | 0.762 | 1.03 | 0.427
HDRNTYEKYLE [TF_Y666_G671E] | 1.07 | 0.505 | 0.595 | 0.584 | 0.748 | 0.715 | 1.21 | 0.856 | 0.736 | 1.24 | 0.506 | 1.08 | 0.995 | 0.681 | 1.14 | 1.62
PLGVLYKVKVF [PTS_Y128_V124L_YF] | 1.54 | 0.922 | 0.824 | 0.562 | 0.862 | 0.692 | 1.64 | 0.801 | 0.553 | 1.23 | 0.446 | 0.973 | 0.311 | 0.88 | 0.896 | 0.494
TPLSAYQIPRT [GAB2_Y324] | 0.593 | 0.415 | 0.466 | 0.408 | 0.317 | 0.586 | 0.539 | 0.365 | 0.29 | 0.615 | 0.703 | 8.8 | 0.435 | 1.04 | 0.853 | 0.792
YKGKKYKPLDL [RPL35_Y78] | 0.462 | 0.283 | 0.391 | 0.405 | 0.45 | 0.537 | 0.541 | 0.511 | 0.404 | 0.51 | 0.581 | 0.508 | 0.541 | 0.821 | 0.955 | 0.429
VMIYAYLLHRG [PTEN_Y138_C136Y] | 0.821 | 0.479 | 0.455 | 0.351 | 0.703 | 0.371 | 0.856 | 0.443 | 0.697 | 0.733 | 0.591 | 0.748 | 0.46 | 1.34 | 0.741 | 0.806
DDEENYENVPR [FCRL3_Y722] | 1.3 | 0.619 | 0.572 | 0.567 | 0.773 | 0.57 | 1.19 | 0.555 | 0.589 | 1.11 | 0.45 | 0.786 | 0.428 | 1.04 | 0.9 | 0.699
FLAATYPTVGQ [NF1_Y2508_YF] | 0.548 | 0.444 | 0.494 | 0.357 | 0.523 | 0.593 | 0.634 | 0.435 | 0.518 | 0.404 | 0.396 | 0.401 | 0.426 | 0.835 | 0.888 | 0.57
WQQQSYLDFGI [CTNNB1_Y30_S33F] | 0.883 | 0.635 | 0.564 | 0.816 | 0.757 | 0.39 | 1.04 | 0.524 | 0.441 | 0.974 | 0.418 | 0.658 | 0.544 | 0.999 | 0.776 | 0.592
